Results published in patent publication US7871610B2, “Antibodies to Tie1 ectodomain” (Dyax Corp., priority 2003, dated 2011).
Entries after “also recorded” stand apart in the source; their conditions may differ.

Assays:
human platelets = test: Flow cytometry binding to human platelets; settings: non-activated human platelets, 2 and 10 μg/ml
Description: To avoid platelet activation, human platelets were isolated from plasma of healthy donors using the platelet GelSep kit (Biocytex, Marseille, France) kit according to the guidelines of the manufacturer. Platelets were activated by the addition of thrombin to a final concentration of 0.8 U/ml. To distinguish activated from non-activated platelets double staining was performed with Tie-1 antibodies/control antibodies and antibody CD42 (total platelets) or CD62 (activated platelets).
After preparation, platelets were resuspended in buffer 2 of the GelSep kit, 10% heat inactivated human serum (incubation buffer) and incubated for 1 hour. […] Platelets were spun down by centrifugation for 10 min at 611 g. Between incubations platelets were washed twice with Buffer 1 of the GelSep kit. Then, Strepatvidin-R-phycoerythrin together with anti-CD42-PercP or anti-CD62-PercP were incubated for 30 minutes at room temperature in incubation buffer After the last incubation and washing detection of bound antibodies was performed by means of flow cytometry on a FACSscan and Epics Altra (Becton Dickinson, Oxnard, Coulter) and results analyzed. Cells were gated on SSC and anti-CD42-PercP for the total platelets in case non-activated platelets were used and on SSC and anti-CD62-PercP for the activated platelets.

Mouse Tie 1-Fc = target: T1, Mouse Tie 1-Fc (Mus musculus, UniProt Q06806); test: BIAcore, coated E3 IgGs with recombinant mouse Tie-1 Fc; type: binding; settings: IgG, mouse Tie1-Fc
T1 sequence (Q06806 23-755 limits assumed): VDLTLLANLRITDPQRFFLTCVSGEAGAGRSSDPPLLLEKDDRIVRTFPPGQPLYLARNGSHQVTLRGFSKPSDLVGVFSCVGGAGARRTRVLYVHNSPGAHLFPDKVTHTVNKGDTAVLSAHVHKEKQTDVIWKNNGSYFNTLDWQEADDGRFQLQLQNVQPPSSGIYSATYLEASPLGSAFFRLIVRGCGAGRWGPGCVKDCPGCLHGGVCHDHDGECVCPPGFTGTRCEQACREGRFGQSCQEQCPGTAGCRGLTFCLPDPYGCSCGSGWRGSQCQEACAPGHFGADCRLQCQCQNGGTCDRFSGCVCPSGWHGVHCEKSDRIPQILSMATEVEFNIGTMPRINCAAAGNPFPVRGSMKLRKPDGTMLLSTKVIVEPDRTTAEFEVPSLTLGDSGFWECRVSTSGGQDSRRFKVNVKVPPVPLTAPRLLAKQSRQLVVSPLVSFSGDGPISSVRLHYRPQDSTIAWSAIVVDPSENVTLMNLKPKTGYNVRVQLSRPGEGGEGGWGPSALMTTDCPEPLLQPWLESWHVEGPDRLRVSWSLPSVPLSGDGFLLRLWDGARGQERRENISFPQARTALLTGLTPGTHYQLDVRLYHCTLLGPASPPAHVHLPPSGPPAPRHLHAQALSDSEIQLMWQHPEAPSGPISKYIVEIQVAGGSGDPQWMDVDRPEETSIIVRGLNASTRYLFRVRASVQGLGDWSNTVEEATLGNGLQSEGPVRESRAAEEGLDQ
Description: In order to evaluate if the binding behavior had been affected in any way by the conversion of the somatic mutations back to germline, the germlined antibody was produced and tested as a IgG. The germlined E3 was reformatted to an IgG as described. This was then used to transiently transfect HEK293T cells using established procedures. The IgG was purified from the culture supernatant using protein A column chromatography using established procedures and the subsequent IgG was then tested for binding activity using surface plasmon resonance (BIAcore). The germlined E3 IgG1 stock solution 0.63 mg/ml (2146-002) was diluted 1/50 in a buffer of pH 4.5 and the parental E3 IgG1 stock solution 0.56 mg/ml (2143-001) was diluted 1/50 in a buffer of pH 4.5. The IgG were directly coated via onto a CM5 chip. The surface of the chips was activated with a 7 minute pulse of 0.05M NHS/0.2M EDC and the IgG was flowed over until 780RU germlined E3-IgG and 728 non germlined E3 IgG was coated onto the surface. All flow cells were subsequently deactivated with a 7 minute pulse of 1M ethanolamine hydrochloride pH8.5. All analysis was performed in HBS buffer. […] All samples were run and analyzed in duplicate
Sensorgrams were analyzed using the simultaneous ka/kd fitting program with 1:1 model in the BIAEVALUATION™ software 3.1.

Tie1 = Tie1 (Homo sapiens, UniProt P35590); test: Confocal microscopy staining of HUVEC; type: binding; set-up: endogenous in cells; host or cells: HUVEC; settings: biotinylated antibody 10 μg/ml, fixed cells
Sequence of Tie1 (P35590 22-1138): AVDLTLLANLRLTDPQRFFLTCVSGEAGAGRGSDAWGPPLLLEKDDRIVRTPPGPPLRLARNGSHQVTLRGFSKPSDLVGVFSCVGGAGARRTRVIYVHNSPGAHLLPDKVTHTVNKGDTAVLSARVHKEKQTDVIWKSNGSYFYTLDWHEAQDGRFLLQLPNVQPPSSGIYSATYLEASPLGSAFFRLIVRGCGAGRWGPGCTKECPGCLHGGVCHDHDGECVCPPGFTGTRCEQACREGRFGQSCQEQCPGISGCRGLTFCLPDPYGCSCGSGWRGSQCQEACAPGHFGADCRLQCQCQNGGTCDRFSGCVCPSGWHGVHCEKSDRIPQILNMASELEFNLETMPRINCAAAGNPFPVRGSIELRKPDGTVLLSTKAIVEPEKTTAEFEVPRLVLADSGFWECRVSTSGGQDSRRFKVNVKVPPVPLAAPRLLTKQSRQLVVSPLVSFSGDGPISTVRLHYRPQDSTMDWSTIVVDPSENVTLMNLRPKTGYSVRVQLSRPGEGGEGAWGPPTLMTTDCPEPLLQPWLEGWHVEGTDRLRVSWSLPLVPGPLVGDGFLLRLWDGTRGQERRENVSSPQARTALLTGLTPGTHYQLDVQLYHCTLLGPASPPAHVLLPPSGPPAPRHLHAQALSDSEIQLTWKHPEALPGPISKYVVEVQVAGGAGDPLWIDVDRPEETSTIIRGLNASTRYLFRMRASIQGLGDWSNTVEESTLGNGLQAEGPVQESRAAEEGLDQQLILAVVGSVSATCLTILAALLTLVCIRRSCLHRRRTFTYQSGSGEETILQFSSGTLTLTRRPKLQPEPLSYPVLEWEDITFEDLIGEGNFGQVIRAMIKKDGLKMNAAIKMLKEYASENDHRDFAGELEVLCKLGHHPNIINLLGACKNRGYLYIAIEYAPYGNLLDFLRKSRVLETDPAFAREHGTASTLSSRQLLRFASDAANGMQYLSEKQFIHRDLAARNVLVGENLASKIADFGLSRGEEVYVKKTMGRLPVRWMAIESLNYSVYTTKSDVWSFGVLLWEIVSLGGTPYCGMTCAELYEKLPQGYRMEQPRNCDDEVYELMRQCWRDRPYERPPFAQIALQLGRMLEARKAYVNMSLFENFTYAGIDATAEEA
Description: We analyzed the staining pattern of E3 in HUVECS using confocal microscopy. HUVEC were trypsinised, washed with PBS and spotted at a density of 60 000 cells on a gelatine coated microscope slide and incubated for 24 hours in a humidified incubator at 37° C. Cells were air dried and fixed with 4% paraformaldehyde for 20 minutes at room temperature. The slides were washed with PBS. The slides were incubated with 10% Heat inactivated human serum (incubation buffer).
For measuring specific binding to Tie-1, biotinylated antibody E3 and biotinylated negative control antibody A2 were used at a concentration of 10 μg/ml and incubated for 1 hour at room temperature. Slides were washed twice with PBS. Then, Strepatvidin-R-phycoerythrin (Dako, Glostrup, Denmark) was added and incubated for 1 hour at room temperature. After the last incubation and washing detection of bound antibodies was performed by means of confocal microscopy.

B1: E3: human anti-Tie1 antibody from Fab phage library; HC SEQ ID NO:114, LC SEQ ID NO:116 (antibody, V domains shown)
VH: EVQLLESGGGLVQPGGSLRLSCAASGFTFSMYGMVWVRQAPGKGLEWVSVISPSGGNTGYADSVKGRFTISRDNSKNTLYLQVNSLRAEDTAVYYCARAPRGYSYGYYYWGQGTLVTVSSASTKGPSVFPLAPSSKSTSGG
VL: DIQMTQSPLSLSASVGDRVTITCRASQGIGHYLAWYQQKPGKVPKLLIYTASTLQSGVPSRFSGSGSGTDFTLTINSLQPEDVATYYCQQFNSYPHTFGQGTRLDIK
modifications: Synthetically generated peptide
binding to total platelets (CD42) (human platelets): Only a background number; also recorded: no significant binding to total platelets
effect of germlining on binding activity (Mouse Tie 1-Fc): minimal impact on the binding activity
binding to HUVEC by confocal microscopy (Tie1): binds specifically to HUVEC
localisation of staining in HUVEC (Tie1): pre-dominantly located inside of the cell
